# Assay results: paper PMC5650531
# Target: His6-CCCP-1 (C. elegans CCCP-1, full length) (C. elegans)
# Experiment: SEC-MALS
substance,measurement,value
"His6-CCCP-1 (C. elegans CCCP-1, full length) (natural protein)",stoichiometry N,2
